2 molecules from US20210403593A1 (TIZONA THERAPEUTICS, published 2021) can be followed below.

Where a chain is given by its changes, count along the chain named.

One assay has as its target T1, Chimera #10 (Homo sapiens (Human), UniProt P49961 1-510).
T1 construct: Expressed on CHO cells
T1 chain: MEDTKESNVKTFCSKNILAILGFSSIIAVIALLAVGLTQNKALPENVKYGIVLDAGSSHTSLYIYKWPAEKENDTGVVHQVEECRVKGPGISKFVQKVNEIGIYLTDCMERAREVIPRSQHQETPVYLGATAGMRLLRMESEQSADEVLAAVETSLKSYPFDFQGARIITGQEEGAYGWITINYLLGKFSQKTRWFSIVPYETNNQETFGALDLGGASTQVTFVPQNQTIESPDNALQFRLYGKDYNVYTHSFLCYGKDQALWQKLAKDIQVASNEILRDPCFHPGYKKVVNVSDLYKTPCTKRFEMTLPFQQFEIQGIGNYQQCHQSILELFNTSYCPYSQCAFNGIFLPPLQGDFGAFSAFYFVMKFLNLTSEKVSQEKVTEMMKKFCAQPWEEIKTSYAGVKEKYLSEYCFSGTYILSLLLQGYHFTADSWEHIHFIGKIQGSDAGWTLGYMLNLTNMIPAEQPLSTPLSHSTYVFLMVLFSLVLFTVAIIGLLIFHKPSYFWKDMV
The assay is described as follows: FACS on CHO cells; Chimera 2 with human E153 ([..]).

For assay [1], the target named is T2, cynomolgus macaque (Macaca fascicularis) CD39 (Macaca fascicularis, UniProt P49961 7-510 (human entry)).
T2 construct: On engineered CHO cells and on primary cyno B cells and monocytes; also called cyno CD39; cCD39
T2 chain: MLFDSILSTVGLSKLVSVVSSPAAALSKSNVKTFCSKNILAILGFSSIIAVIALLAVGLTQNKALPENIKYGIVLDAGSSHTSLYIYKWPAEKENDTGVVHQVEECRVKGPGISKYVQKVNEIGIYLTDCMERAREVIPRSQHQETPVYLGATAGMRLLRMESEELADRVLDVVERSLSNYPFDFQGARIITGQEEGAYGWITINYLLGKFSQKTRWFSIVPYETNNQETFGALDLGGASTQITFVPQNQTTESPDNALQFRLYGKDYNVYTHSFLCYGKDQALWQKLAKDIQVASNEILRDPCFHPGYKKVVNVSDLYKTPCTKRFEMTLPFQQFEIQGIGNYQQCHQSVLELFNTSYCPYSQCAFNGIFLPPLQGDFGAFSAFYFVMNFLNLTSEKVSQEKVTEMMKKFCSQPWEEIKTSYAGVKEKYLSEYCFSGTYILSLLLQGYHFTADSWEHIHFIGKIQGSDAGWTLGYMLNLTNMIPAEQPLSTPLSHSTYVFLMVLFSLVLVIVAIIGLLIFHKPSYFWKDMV
The assay is described as follows: flow cytometry, 100 nM IgG, MFI on CHO-cCD39 / MFI on parental CHO.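 Also: antibodies bound to the cells for 30 min in PBS, then bound IgG was revealed with a fluorescent goat anti-human IgG secondary antibody, 20 min on ice.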 For orientation: In flow cytometry, cells or beads pass a laser one at a time.

The target of the next assay is T3, Chimera #13 (Homo sapiens (Human), UniProt P49961 1-510).
T3 construct: Expressed on CHO cells
T3 sequence: T1 chain with N99D, Q143E, S144L, E147R, A150D, A151V, K157S, S158N
The assay is described as follows: FACS on CHO cells; human CD39 with mouse D99 and T154.

B1: 31901 (antibody, human IgG4 S228P, kappa, V domains shown)
VH: QVQLVQSGAEVKKPGSSVKVSCKASGGTFSSLPISWVRQAPGQGLEWMGGIGFGTANYAQKFQGRVTITADESTSTAYMELSSLRSEDTAVYYCARGGAKYAGRYGMDVWGQGTTVTVSS
VL: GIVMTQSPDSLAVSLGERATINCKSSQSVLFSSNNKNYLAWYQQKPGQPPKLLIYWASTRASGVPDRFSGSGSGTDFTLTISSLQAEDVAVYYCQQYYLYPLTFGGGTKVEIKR
As for B1, the binding result in the assay with Chimera #10 and with Chimera #13 was “no binding (tested: 15 ug/ml)” in each case. For the same molecule, the “Cell Binding (FOB)” value in assay [1] was determined as 4660 fold over background.

B2: 31905 (antibody, human IgG4 S228P, kappa, V domains shown)
VH: B1 VH with S30P, L32N, P33A, G103R, R104T
VL: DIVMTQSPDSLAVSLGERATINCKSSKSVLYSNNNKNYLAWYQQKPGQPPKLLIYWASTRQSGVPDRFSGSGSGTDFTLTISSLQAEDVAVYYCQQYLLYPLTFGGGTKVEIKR
For B2, the binding result with Chimera #10 and with Chimera #13 was “no binding (tested: 15 ug/ml)” in each case. The “Cell Binding (FOB)” value in assay [1] is 4940 fold over background.
